Test results from PMC4738300, “Physiological lipid composition is vital for homotypic ER membrane fusion mediated by the dynamin-related GTPase Sey1p” (Scientific Reports, 2016).

Legend:
[1] = biological target: the molecule itself; assay: proteoliposome docking assay (co-isolation of liposomes on streptavidin beads); biotin-labeled Sey1p proteoliposomes held on streptavidin magnetic beads and Rh-labeled Sey1p proteoliposomes (500 uM lipid each) in RB500 with 2 mM MgCl2 and 1 mM GTP, 30 °C, 30 min; Rh fluorescence of co-isolated liposomes; complete ER-mimicking lipids and four lipid subsets (Table 1)
[2] = biological target: the molecule itself; assay: pull-down; GST-Sey1p and His6-Sey1p, 4 uM each, mixed in RB150 (20 mM Hepes-NaOH pH 7.4, 150 mM NaCl, 10% glycerol) with 0.4% Triton X-100, 2 mM MgCl2 and 1 mM GTP, 4 °C; GST-Sey1p isolated on glutathione-Sepharose 4B; SDS-PAGE, Coomassie Blue

Protein | binding result [1] | binding result [2]
untagged full-length Sey1p reconstituted into proteoliposomes (natural protein, S. cerevisiae, three extra N-terminal residues (Gly-Pro-Gly) left after 3C protease cleavage, printed in three-letter code; Inserted by its two C-terminal transmembrane domains into liposomes; Protein-to-lipid ratio 1/500 (mol/mol); also called untagged form of Sey1p; Sey1p proteoliposomes; not shown: His6, N-terminal, cleaved) GPGMADRPAIQLIDEEKEFHQSALQYFQQCIGNRDVGLDYHVISVFGSQSSGKSTLLNVLFNTNFDTMDAQVKRQQTTKGIWLAHTKQVNTTIEIDNDRPDIFVLDVEGSDGSERGEDQDFERKAALFAIAVSEVLIVNMWEQQIGLYQGNNMALLKTVFEVNLSLFGKNDNDHKVLLLFVIRDHVGVTPLSSLSDSVTRELEKIWTELSKPAGCEGSSLYDYFDLKFVGLAHKLLQEDKFTQDVKKLGDSFVMKGTENYYFKPQYHHRLPLDGWTMYAENCWDQIERNKDLDLPTQQILVARFKTEEISNEALEEFISKYDESIAPLKGNLGSLTSQLVKLKEECLTKYDEQASRYARNVYMEKREALNTKLNSHISGTINEFLESLMEKLWDDLKLEVSSRDKATTSFVESVAAGKSKIEKEFNESMETFKKLGLLISNEEITCKFSDDIEERIKQLRDAELKAKIGRIKKNLVPELKDHVIHLLSHPSKKVWDDIMNDFESTIKDNISAYQVEKDKYDFKIGLSESENAKIYKNIRILAWRTLDTTVHDYLKIDTIVSILRDRFEDVFRYDAEGSPRLWKTEEEIDGAFRVAKEHALEVFEVLSLAVTSDNVEIIPDVPMAEEESGEDNEIYRDNEGVFHSRRFAHILTELQKENVLDQFRRQINITVLDSKRSIITTRTHIPPWIYVLLAVLGWNEFVAVIRNPLFVTLTLILGATFFVIHKFGLWGPVVNVVQSAVGETRTAIKDKLRQFVVEDHEVKESFEMKDFSKNEQKEK | binds | 
Sey1p (tagged full-length recombinant Sey1p: GST-His6-3C-Sey1p and His6-3C-Sey1p) (natural protein, S. cerevisiae, UniProt Q99287 1-776, looked up, The bait copy is GST-His6-3C-Sey1p (pET-41 Ek/LIC) and the prey copy is His6-3C-Sey1p (pET-30 Ek/LIC); GST is on the bait copy only; The tags were not cleaved in the pull-down; also called GST-Sey1p; His6-Sey1p; source: E. coli Rosetta 2(DE3)pLysS, purified (COSMOGEL His-Accept beads, imidazole elution, dialysis; in 0.4% Triton X-100); not shown: His6, N-terminal, kept; GST, N-terminal, kept) MADRPAIQLIDEEKEFHQSALQYFQQCIGNRDVGLDYHVISVFGSQSSGKSTLLNVLFNTNFDTMDAQVKRQQTTKGIWLAHTKQVNTTIEIDNDRPDIFVLDVEGSDGSERGEDQDFERKAALFAIAVSEVLIVNMWEQQIGLYQGNNMALLKTVFEVNLSLFGKNDNDHKVLLLFVIRDHVGVTPLSSLSDSVTRELEKIWTELSKPAGCEGSSLYDYFDLKFVGLAHKLLQEDKFTQDVKKLGDSFVMKGTENYYFKPQYHHRLPLDGWTMYAENCWDQIERNKDLDLPTQQILVARFKTEEISNEALEEFISKYDESIAPLKGNLGSLTSQLVKLKEECLTKYDEQASRYARNVYMEKREALNTKLNSHISGTINEFLESLMEKLWDDLKLEVSSRDKATTSFVESVAAGKSKIEKEFNESMETFKKLGLLISNEEITCKFSDDIEERIKQLRDAELKAKIGRIKKNLVPELKDHVIHLLSHPSKKVWDDIMNDFESTIKDNISAYQVEKDKYDFKIGLSESENAKIYKNIRILAWRTLDTTVHDYLKIDTIVSILRDRFEDVFRYDAEGSPRLWKTEEEIDGAFRVAKEHALEVFEVLSLAVTSDNVEIIPDVPMAEEESGEDNEIYRDNEGVFHSRRFAHILTELQKENVLDQFRRQINITVLDSKRSIITTRTHIPPWIYVLLAVLGWNEFVAVIRNPLFVTLTLILGATFFVIHKFGLWGPVVNVVQSAVGETRTAIKDKLRQFVVEDHEVKESFEMKDFSKNEQKEK |  | binds
